Test results from paper PMC7941734 (Cell reports, 2021).

Target: His6-tagged ASF1A S166E (recombinant) (human, UniProt Q9Y294 1-204, S166E)
Test: pull-down

His6-tagged ASF1A S166E (recombinant), sequence (Q9Y294 whole entry S166E): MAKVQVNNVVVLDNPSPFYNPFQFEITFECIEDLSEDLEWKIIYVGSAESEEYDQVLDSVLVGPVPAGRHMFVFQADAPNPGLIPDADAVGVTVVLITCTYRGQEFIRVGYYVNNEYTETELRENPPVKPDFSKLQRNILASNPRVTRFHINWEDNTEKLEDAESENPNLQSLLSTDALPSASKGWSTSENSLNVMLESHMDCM

binding result: binds
B1: GST-tagged FHA domain of MDC1 (aa 1–158) (domain or fragment, human, UniProt Q14676 1-158, looked up)
chain: MEDTQAIDWDVEEEEETEQSSESLRCNVEPVGRLHIFSGAHGPEKDFPLHLGKNVVGRMPDCSVALPFPSISKQHAEIEILAWDKAPILRDCGSLNGTQILRPPKVLSPGVSHRLRDQELILFADLLCQYHRLDVSLPFVSRGPLTVEETPRVQGETQ
